Test results from PMC10673981.

Molecular target: retinal guanylate cyclase GC1, eGFP fusion (mGFP-GC1 cells) (human) (UniProt Q02846)
Chain of UniProt Q02846 (Q02846 52-1103): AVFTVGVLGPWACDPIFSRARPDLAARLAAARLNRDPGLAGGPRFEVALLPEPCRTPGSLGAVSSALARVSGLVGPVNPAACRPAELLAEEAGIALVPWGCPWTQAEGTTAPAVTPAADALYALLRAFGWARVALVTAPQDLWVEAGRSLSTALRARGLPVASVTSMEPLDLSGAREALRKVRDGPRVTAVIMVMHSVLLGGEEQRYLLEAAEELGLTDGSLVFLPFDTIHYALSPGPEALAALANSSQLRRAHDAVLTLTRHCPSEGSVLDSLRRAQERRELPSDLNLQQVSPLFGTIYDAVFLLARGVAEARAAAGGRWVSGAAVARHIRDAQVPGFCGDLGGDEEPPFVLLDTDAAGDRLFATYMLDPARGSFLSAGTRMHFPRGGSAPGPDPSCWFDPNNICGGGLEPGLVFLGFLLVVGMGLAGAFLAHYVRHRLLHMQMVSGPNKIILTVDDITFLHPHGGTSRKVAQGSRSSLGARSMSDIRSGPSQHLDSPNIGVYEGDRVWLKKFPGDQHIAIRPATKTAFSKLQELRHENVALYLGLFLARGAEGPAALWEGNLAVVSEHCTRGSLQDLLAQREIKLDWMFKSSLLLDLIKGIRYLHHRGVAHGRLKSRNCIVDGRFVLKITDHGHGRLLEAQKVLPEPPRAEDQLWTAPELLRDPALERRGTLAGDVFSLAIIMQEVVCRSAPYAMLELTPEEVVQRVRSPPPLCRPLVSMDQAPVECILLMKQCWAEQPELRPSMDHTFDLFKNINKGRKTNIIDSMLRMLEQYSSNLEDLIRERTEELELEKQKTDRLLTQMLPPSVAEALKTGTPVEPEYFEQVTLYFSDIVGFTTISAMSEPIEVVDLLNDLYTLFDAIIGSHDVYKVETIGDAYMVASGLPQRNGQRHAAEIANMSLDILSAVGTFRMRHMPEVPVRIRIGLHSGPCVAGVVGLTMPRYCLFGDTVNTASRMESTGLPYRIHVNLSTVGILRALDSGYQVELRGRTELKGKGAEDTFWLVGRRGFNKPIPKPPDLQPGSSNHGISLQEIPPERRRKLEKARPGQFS

Substance | EC50: GCAP1 concentration (0–20 µM) at which cGMP synthesis by GC1 in HEK293 cell membranes is half-maximal, at low Ca2+ (< 19 nM) [nM]
E111V-GCAP1 (cone-rod dystrophy-associated variant of human GCAP1) (from UniProt P43080 1-201) (natural protein) | 1550
Human myristoylated WT-GCAP1 (guanylate cyclase-activating protein 1) (from UniProt P43080 1-201) (natural protein) | 1880
